Values quoted from earlier work, collected in publication PMC3078936.

Molecular target: Bmf (Homo sapiens)
Conditions: cited from earlier work

Sequence of DYNLL1 (P63167 whole entry): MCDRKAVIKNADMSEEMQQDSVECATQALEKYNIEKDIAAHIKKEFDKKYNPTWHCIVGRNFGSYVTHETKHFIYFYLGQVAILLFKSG

**Q.** With DYNLL1 (from UniProt P63167) as the substance, how does the Kd read?
**A.** 750 nM
